Changes are numbered by the printed parent chain.

Experimental findings from patent US20190127480A1 (Regeneron, published 2019) are described below.

Sequences and labels used below:
B1: BSPSMA/CD3-1200 (bispecific antibody, IgG4, V domains shown)
VH 1: QVQLVESGGGVVQPGRSLRLSCAASGFTFSSYGMHWVRQAPGKGLEWVAVISYAGNNKYYADSVKGRFTVSRDNSKKTLYLQMNSLRSEDTAVYYCAKDSYYDFLTDPDVLDIWGQGTMVTVSS
VH 2: EVQLVESGGGLVQPGRSLRLSCAASGFTFDDYSMHWVRQAPGKGLEWVSGISWNSGSIGYADSVKGRFTISRDNAKNSLYLQMNSLRAEDTALYYCAKDGSGYGKFYHYGLDVWGQGTTVTVSS
VL: DIQMTQSPSSLSASVGDSVTITCRASQSINNYLNWYQQKPGKAPKLLIYTASSLLSGVPSRFSGSGSGTDFTLTISGLHPEDFATYFCQQSFSTPPITFGQGTRLDIK
notes: modified (chimeric) IgG4 Fc domain; also called PSMA-VH-11810 x CD3-VH-G12
B2: BSPSMA/CD3-1600 (bispecific antibody, IgG4, V domains shown)
VH 1: B1 VH 1
VH 2: B1 VH 2 with I58K, L111M
VL: B1 VL
notes: modified (chimeric) IgG4 Fc domain; also called PSMA-VH-11810 x CD3-VH-G16
B3: BSPSMA/CD3-2100 (bispecific antibody, IgG4, V domains shown)
VH 1: B1 VH 1
VH 2: B1 VH 2 with I58K, H108Y, L111M
VL: B1 VL
notes: modified (chimeric) IgG4 Fc domain; also called PSMA-VH-11810 x CD3-VH-G21
B4: BSPSMA/CD3-1500 (bispecific antibody, IgG4, V domains shown)
VH 1: B1 VH 1
VH 2: B1 VH 2 with I58K, H108Y
VL: B1 VL
notes: modified (chimeric) IgG4 Fc domain; also called PSMA-VH-11810 x CD3-VH-G15
B5: BSPSMA/CD3-1900 (bispecific antibody, IgG4, V domains shown)
VH 1: B1 VH 1
VH 2: B1 VH 2 with L111M
VL: B1 VL
notes: modified (chimeric) IgG4 Fc domain; also called PSMA-VH-11810 x CD3-VH-G19
B6: H1H5771P (antibody, human IgG1, V domains shown)
VH: EVQLVESGGGLVQPGRSLRLSCAASGFSFDNYAMHWVRQAPGQGLEWVSGISWNSGSRDYADSVKGRFTISRDNARNSLFLQMNSLSNEDTAMYYCAKDKSGYGSYFYGMDVWGQGTTVTVSS
VL: EIVLTQSPGTLSLSPGDRATLSCRASQSIRNIYLAWYQQKPGQAPRLLIHGASTRATGIPDRFSGSGSGTDFTLTISRLEPEDFAVYYCQQRVSLPYTFGQGTKLEIK
B7: H1H7194P (antibody, human IgG1, V domains shown)
VH: EVQLVESGGGLVQPGRSLRLSCAASGFTFGDYTMHWVRQAPGKGLEWVSDISWNSGSKDYADSVKGRFTISRDNAKNSLYLQMNSLRTEDTAFYYCAKDSRGYGLYYHLGLDVWGQGTTVTVSS
VL: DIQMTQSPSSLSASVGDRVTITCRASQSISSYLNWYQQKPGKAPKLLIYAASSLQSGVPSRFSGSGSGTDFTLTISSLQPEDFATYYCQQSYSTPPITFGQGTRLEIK
notes: Monovalent 1-arm format: second Fab removed, only the Fc portion (CH2-CH3) expressed; human IgG1 Fc; tied by the numerical identifier; also called H1H7194B
B8: H1H7195P (antibody, human IgG1, V domains shown)
VH: B7 VH with G30A, K58I, D59A, L105H, Y107K, H108Y
VL: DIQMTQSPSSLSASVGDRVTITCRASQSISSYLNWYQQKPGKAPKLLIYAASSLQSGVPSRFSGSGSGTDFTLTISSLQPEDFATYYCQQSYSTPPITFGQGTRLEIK
notes: Monovalent 1-arm format: second Fab removed, only the Fc portion (CH2-CH3) expressed; human IgG1 Fc; tied by the numerical identifier; also called H1H7195B
B9: H1H7196P (antibody, human IgG1, V domains shown)
VH: EVQLVESGGGMVQPGRSLRLSCAASGFPFNDYTMHWVRQVPGRGLEWVSDISWNSGSKGYADSVKGRFIISRDNAKNSLYLQMNSLRVEDTALYYCVKDGSGYGRFHYYAMDVWGQGTTVTVSS
VL: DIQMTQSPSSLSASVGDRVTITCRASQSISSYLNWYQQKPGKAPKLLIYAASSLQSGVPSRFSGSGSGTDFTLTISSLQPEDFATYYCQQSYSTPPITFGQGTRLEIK
notes: Monovalent 1-arm format: second Fab removed, only the Fc portion (CH2-CH3) expressed; human IgG1 Fc; tied by the numerical identifier; also called H1H7196B
B10: H1H7254P (antibody, human IgG1, V domains shown)
VH: EVQLVESGGGVVQPGRSLRLSCAASGFKFDGYTMHWVRQGPGKGLEWVSDIGWNSNTIGYADSVKGRFTISRDNAKNSLYLQMNSLRPEDTALYFCVKDKSGYGKFFIGLDVWGQGTMVTVSS
VL: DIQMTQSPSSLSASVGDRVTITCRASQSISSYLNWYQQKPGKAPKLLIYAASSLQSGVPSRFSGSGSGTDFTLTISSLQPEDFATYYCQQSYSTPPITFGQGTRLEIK
notes: Monovalent 1-arm format: second Fab removed, only the Fc portion (CH2-CH3) expressed; human IgG1 Fc; tied by the numerical identifier; also called H1H7254B
B11: H1H7258P (antibody, human IgG1, V domains shown)
VH: B10 VH with E1Q, V11L, K28T, G31D, K76R, F95Y, F107Q, I108Y, M118T
VL: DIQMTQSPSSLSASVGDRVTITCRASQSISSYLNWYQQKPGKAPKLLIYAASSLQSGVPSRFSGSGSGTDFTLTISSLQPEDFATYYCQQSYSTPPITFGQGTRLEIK
notes: Monovalent 1-arm format: second Fab removed, only the Fc portion (CH2-CH3) expressed; human IgG1 Fc; tied by the numerical identifier; also called H1H7258B
B12: H1H5761P (antibody, human IgG1, V domains shown)
VH: QVQLVESGGGVVQPGRSLRLSCAASGFTFSSYGMHWVRQAPGKGLEWVAVISYDGSNKYYADSVKGRFTISRDYSKNTLYLQMNSLRAEDTAVFYCAKGAMVRGVPYNYYYGMDVWGQGTTVTVSS
VL: DIQMTQSPSSLSASVGDRVTITCRASQGIRNDLGWFQQKPGKAPKRLIYAASSLQSGVPSRFSGSGSGTEFTLTISSLQPEDFATYYCLQHNSYPYTFGQGTKLEIK
B13: H1H5769P (antibody, human IgG1, V domains shown)
VH: EVQLVESGGGLVQPGRSLRLSCAASGFTFDDYTMHWVRQVPGKGLEWISGISWNSGSMDYADSVKGRFTISRDNARNSLFLQMNSVRTEDTALYYCAKDKSGYGSFYYGMDVWGQGTTVTVSS
VL: B6 VL with I29V, R30S, N31S, V93A, S94H, L95S

T4 sequence (Q04609 whole entry): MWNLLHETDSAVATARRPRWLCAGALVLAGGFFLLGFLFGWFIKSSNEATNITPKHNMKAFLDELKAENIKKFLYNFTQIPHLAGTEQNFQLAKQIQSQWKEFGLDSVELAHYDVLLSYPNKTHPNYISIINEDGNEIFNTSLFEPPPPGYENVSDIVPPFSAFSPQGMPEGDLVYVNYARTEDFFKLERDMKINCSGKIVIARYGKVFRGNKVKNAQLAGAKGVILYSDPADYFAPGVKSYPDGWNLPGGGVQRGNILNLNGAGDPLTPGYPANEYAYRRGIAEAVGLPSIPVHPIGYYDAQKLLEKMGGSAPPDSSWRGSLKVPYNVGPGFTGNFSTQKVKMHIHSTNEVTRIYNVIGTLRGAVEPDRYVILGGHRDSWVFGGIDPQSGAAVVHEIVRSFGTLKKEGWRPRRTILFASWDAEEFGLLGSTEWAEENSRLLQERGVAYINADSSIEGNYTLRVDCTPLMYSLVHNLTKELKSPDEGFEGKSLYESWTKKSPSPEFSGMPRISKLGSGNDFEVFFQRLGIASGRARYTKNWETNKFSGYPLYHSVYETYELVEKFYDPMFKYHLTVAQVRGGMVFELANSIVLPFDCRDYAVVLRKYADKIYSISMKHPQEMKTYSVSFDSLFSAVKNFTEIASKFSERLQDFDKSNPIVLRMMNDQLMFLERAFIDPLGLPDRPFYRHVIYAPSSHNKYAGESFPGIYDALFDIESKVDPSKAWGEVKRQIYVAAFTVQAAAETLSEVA

One assay deals with T1, human CD3 on CD3-expressing cells (Jurkat, human T cells) (human, UniProt P07766 23-207; P04234 22-171).
T1 construct: On cells CD3 stands within the T cell receptor complex (also gamma and zeta chains); also called human CD3 expressing Jurkat cells
T1 sequence (P07766 23-207 limits assumed, chain 1 of 2): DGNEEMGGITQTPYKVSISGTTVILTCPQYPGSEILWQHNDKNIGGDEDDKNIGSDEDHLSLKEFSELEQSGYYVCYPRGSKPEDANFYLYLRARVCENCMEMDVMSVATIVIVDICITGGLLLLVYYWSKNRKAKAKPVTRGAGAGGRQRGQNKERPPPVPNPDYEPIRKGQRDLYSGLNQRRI
T1 sequence (P04234 22-171 limits assumed, chain 2 of 2): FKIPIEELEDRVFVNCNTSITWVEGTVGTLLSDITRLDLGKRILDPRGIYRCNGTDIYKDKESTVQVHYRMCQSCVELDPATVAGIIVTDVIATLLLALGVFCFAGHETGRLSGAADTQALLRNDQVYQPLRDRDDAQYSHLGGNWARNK
Kind of assay: FACS on Jurkat cells. The protocol:
(§1) Briefly, 2×10⁵ cells/well of human CD3-expressing Jurkat, cynomolgus T, or human PSMA-specific expressing cells were incubated with a serial dilution of bispecific antibodies for 30 min at 4° C. After incubation, cells were washed and a goat F(ab′)₂ anti-human Fcγ PE labeled secondary (Jackson Immunolabs) was added to the cells for an additional 30 min. Next, cells were washed, re-suspended in cold PBS+1% BSA and analyzed via flow cytometry on a BD FACS Canto II.
(§2) For FACS analysis, cells were gated by forward scatter height vs. forward scatter area for single events selection, followed by side and forward scatters. The EC₅₀ for cell binding titration was determined using Prism software. Values were calculated using 4-parameter non-linear regression analysis.
By EC50 is commonly meant the concentration needed to bring the measured effect to its halfway point. As to B1, the EC50 is 47.2 nM.
In turn, B2 came in with an EC50 of 56.8 nM.
B3: a half-maximal effect (EC50) was put at 106 nM.
On the same count and under the same terms, then B4, with 93 nM.
On the same count and under the same terms, then B5, with 60.7 nM.

In another assay the target is T2, human CD3 expressed on cells (Jurkat cells; human T-cells of PBMC) (human, UniProt P09693 23-182; P20963 22-164). Description: cell-based or functional assay.
T2 sequence (chain, as listed by the source, chain 1 of 4): as the sequence (P07766 23-207 limits assumed, chain 1 of 2) above
T2 sequence (chain, as listed by the source, chain 2 of 4): as the sequence (P04234 22-171 limits assumed, chain 2 of 2) above
T2 sequence (P09693 23-182, chain 3 of 4): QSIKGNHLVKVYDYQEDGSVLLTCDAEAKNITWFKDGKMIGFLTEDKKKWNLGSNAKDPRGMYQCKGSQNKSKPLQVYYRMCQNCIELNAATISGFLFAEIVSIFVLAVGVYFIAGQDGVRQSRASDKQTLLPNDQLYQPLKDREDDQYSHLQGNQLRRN
T2 sequence (P20963 22-164, chain 4 of 4): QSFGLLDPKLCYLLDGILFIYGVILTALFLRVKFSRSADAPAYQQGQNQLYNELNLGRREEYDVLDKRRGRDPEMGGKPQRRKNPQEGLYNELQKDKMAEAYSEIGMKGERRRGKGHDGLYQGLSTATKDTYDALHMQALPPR
Consider B6, for which the “EC50 [M] hPBMC Proliferation” value was 6.35e-12 M.

For a further assay, the target named is T2, human CD3 expressed on cells (Jurkat …). Description: cell-based or functional assay. The source holds these as a separate data set.
As for B7, the “EC50 [M] hPBMC Proliferation” value came to 2.37e-12 M.
B8: the “EC50 [M] hPBMC Proliferation” value was determined as 2.42e-12 M.
Consider B9, for which the “EC50 [M] hPBMC Proliferation” value came out at 1.27e-12 M.
B10: the “EC50 [M] hPBMC Proliferation” value amounted to 2.8e-12 M.
In the case of B11, the “EC50 [M] hPBMC Proliferation” value came to 2.17e-12 M.

The target in a further assay is T3, cynomolgus monkey CD3 expressed on monkey T-cells (PBMCs) (cynomolgus monkey, UniProt Q95LI5 22-198; Q95LI8 22-171). Description: cell-based or functional assay.
T3 sequence (Q95LI5 22-198, chain 1 of 2): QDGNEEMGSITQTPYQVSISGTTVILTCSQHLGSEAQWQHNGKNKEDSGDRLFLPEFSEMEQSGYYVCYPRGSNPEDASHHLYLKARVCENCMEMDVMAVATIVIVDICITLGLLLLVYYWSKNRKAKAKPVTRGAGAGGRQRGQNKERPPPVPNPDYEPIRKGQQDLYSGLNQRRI
T3 sequence (Q95LI8 22-171, chain 2 of 2): as the sequence (P04234 22-171 limits assumed, chain 2 of 2) above, with I5V, N15K, I20V, S32T, D33N, I34N, T64A, S74N, V83L, H141R counted along it
For the molecule B12, the “EC50 [M] mfPBMC Proliferation” value came out at 2.81e-09 M.
With B13, the “EC50 [M] mfPBMC Proliferation” value was 8.33e-13 M.
Take B6: the “EC50 [M] mfPBMC Proliferation” value worked out at 2.74e-12 M.

In another assay the target is T3, cynomolgus monkey CD3 expressed on …. Description: cell-based or functional assay. The source holds these as a separate data set.
B7: the “EC50 [M] mfPBMC Proliferation” value was determined as 4.84e-12 M.
For the molecule B8, the “EC50 [M] mfPBMC Proliferation” value was 1.36e-12 M.
As to B9, the “EC50 [M] mfPBMC Proliferation” value turned out to be 1.4e-08 M.
Turning to B10, the “EC50 [M] mfPBMC Proliferation” value was 8.88e-11 M.
The same measure, in the same setting: then B11, with 1.11e-11 M.

Another assay has as its target T2, human CD3 expressed on cells (Jurkat …). Kind of assay: cell-based or functional assay. This is another data set of the same source.
For B7, the “U937 Cytotoxicity Human T-cells” value came to 4.71 pM.
On to B8, for which the “U937 Cytotoxicity Human T-cells” value was 6.1 pM.
Take B9: the “U937 Cytotoxicity Human T-cells” value was found to be 19.6 pM.
Still for that read-out and setting: then B10, with 4.18 pM; and B11, with 15.3 pM.

The next assay has as its target T4, human PSMA on PSMA-expressing cells (human, UniProt Q04609 1-750).
T4 construct: Cell line is named under assay or readout in each row; also called B16F10.9/hPSMA; B16F10.9/PSMA
Description: FACS on B16F10.9/PSMA cells. The protocol: as §1, §2
Take B1: the EC50 stood at 1.16 nM.
Take B2: the response was half-maximal at 1.03 nM (EC50).
Regarding B3, a half-maximal effect (EC50) was put at 1.14 nM.
Take B4: the EC50 was 1.21 nM.
The same measure, in the same setting: then B5, with 1.35 nM.

Another assay concerns the target T2, human CD3 expressed on cells (Jurkat …). Kind of assay: FACS titration on Jurkat cells, monovalent 1-arm antibody. The protocol: FACS data was acquired using the following protocol: Cells at 2×10⁵ per well were incubated with serially diluted antibodies for 30 min on ice. Post incubation, cells were washed and secondary antibody was added and incubated for an additional 30 minutes. After incubation, cells were washed, re-suspended in cold PBS containing 1% BSA and analyzed by flow cytometry with viable Jurkat cells gated by side and forward scatters. The EC₅₀s for cell binding titration were determined using Prism software with values calculated using a 4-parameter non-linear regression analysis.
Molecule B7 returned an EC50 of 1.5 nM.
For the molecule B8, the EC50 came to 0.342 nM.
Molecule B9 had an EC50 of 34.4 nM.
B10 gave an EC50 of 1.09 nM.
Regarding B11, it took 1.07 nM to reach a half-maximal effect (EC50).

In the next assay the target is T5, soluble heterodimeric hCD3ε/δ.mFc protein (human).
T5 construct: also called soluble human CD3; soluble heterodimeric CD3 protein
T5 chain 1: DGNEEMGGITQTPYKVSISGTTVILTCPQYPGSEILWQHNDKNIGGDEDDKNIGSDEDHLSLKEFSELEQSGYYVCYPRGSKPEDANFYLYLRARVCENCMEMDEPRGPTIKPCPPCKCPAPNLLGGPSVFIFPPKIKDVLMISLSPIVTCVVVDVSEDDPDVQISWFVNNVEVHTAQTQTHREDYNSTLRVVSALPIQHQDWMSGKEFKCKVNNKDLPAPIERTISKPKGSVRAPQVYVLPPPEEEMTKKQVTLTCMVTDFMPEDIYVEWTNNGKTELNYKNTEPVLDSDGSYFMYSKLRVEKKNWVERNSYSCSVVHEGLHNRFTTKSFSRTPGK
T5 chain 2: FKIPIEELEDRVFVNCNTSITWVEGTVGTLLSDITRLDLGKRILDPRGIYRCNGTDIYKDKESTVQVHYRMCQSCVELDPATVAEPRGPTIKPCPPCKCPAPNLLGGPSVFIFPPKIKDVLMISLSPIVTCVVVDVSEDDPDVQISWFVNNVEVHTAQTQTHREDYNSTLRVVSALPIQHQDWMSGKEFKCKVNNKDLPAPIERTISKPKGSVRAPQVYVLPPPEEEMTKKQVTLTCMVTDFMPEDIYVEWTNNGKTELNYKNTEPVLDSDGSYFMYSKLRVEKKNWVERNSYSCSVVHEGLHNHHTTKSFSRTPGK
Kind of assay: SPR MASS-1, 37 C, antigen-capture (hCD3ε/δ.mFc captured), antibody injected. The protocol:
Measurements were conducted on a Sierra Sensors MASS-1 instrument.
In the antigen-capture format, the MASS-1 high-density amine sensor surface was derivatized with a goat anti-mouse IgG2a polyclonal antibody (Southern Biotech). Soluble heterodimeric CD3 protein was captured and the respective antibodies were injected over the captured antigen.
Kinetic association (kₐ) and dissociation (kd) rate constants were determined by processing and fitting the data to a 1:1 binding model using MASS-1 AnalyserR2 curve fitting software. Binding dissociation equilibrium constants (KD) and dissociative half-lives (t_{1/2}) were calculated from the kinetic rate constants as: KD (M)=kd/kₐ; and t_{1/2} (min)=(ln 2/(60*kd).
One may read the Kd as the constant that tells how readily two partners part at equilibrium. Usually koff stands for the first-order rate constant of dissociation. Broadly, the kon is the rate constant with which the complex forms. On to B1, for which the Kd turned out to be 64.2 nM, the “T½” value worked out at 4.7 min, the koff was 0.00247 s⁻¹ and the kon was found to be 38500 M⁻¹ s⁻¹.
As for B2, the Kd stood at 37.8 nM, the “T½” value is 4.7 min, the koff was 0.00243 s⁻¹ and the kon worked out at 64300 M⁻¹ s⁻¹.
Consider B3, for which the Kd worked out at 77.5 nM, the “T½” value amounted to 4.9 min, the koff was 0.00234 s⁻¹ and the kon amounted to 30200 M⁻¹ s⁻¹.
In the same order, the values of B4 are 82.9 nM, 1.9 min, 0.00611 s⁻¹ and 73600 M⁻¹ s⁻¹.
B5: the Kd turned out to be 115 nM, the “T½” value was determined as 2.3 min, the koff is 0.00509 s⁻¹ and the kon is 44300 M⁻¹ s⁻¹.
